From patent publication US20110124556 (published 2011)
Positions of bridges follow the written chain, without caps; N, C: chain ends. Non-standard residues stand in square brackets, D forms with d. Chains are numbered I, II in the order given. No end group written: not given here. Hyp = O=C(O)[C@@H]1C[C@@H](O)CN1

Target: human insulin receptor (HIR) (human, UniProt P06213)
Assay: competition

| Binder | Kd [nM] |
| --- | --- |
| LDRQFYRYFQDLLVGFM [S260] | 2300 |
| WLEQERAWIWCEIQGSGCRA [S263 (D8B12)] | > 20000 |
| RWPNFYGYFESLLTHFS [S257] | 14000 |
| SLEEEWAQIESEVWGRSESFYDWFERQLG [S573] | 0.036 |
| LEEEWAQVECEVYGRGCPSESFYDWFERQL [S536] | 0.083 |
| GSLDESFYDWFERQLGGGSGGSWLDEEWAQVQCEVYGRGCPS [S543] | 0.019 |
| GSLDESFYDWFERQLGKKKS [S373] | 120 |
| SLEEEWAQIECEVWGRGCPKGFYGWFRRRG [S582] | 2.5 |
| FHENAYDWFVRQVSKK [S219] | > 2000 |
| SSNFYQALMLLS [S129] | 2900 |
| DWLQRNANFYDWFVAELG [S236] | 100 |
| SIEEEWAQIKCDVWGRGCPPGLLDESFYHWFDRQLR [S520] | 0.02 |
| S441 (peptide) chain 1: ESFYDWFERQLGGGGK chain 2: WAWVQCEVYGRGCPS | 120 |
| S437 (peptide) chain 1: ESFYDWFERQLGGGGK chain 2: LDQEWAWVQCEVYGRGCPS | 0.69 |
| SLEEEWAQIEEVWGRSESFYDWFERQLG [S572] | 4.8 |
| SLEEEWAQIECEVWGRGCPKGFYGWFRRRRG [S584] | 9.3 |
| S359 (listing feature) chain 1: XDWLQRNANFYDWFVAEL chain 2: XDWLQRNANFYDWFVAEL | 700 |
| SLEEEWAQIECEVWGRGCSESFYDWFERQL [S559] | 0.021 |
| S378 (listing feature) chain 1: GSLDESFYDWFERQLGKKKX chain 2: GSLDESFYDWFERQLGKKKX | 65 |
| S454 (not fully specified; listing feature) chain 1: GSLDESFYDWFERQLGKKKX chain 2: EWLDQEWAWVQCEVYGRGCPSEEKX | 0.38 |
| FHENFYDAFVRQVSKK [S222] | > 20 |
| SLEEEWAQIEEVWGRPSESFYDWFERQLG [S570] | 0.73 |

| Binder | Kd [nM] |
| --- | --- |
| GSLDESFYDWFERQLGKKKXXKEWLDQEWAWVQCEVYGRGCPSEE (not fully specified (residues 19, 20, 21); printed as GSLDESFYDWFERQLGKKK-Ald-17-Ald-KEWLDQEWAWVQCEVYGRGCPSEE; cysteine pairing not given here; also: two peptides (1-19 and 22-45) joined by linker 17 between the Ald group on K19 and an N-terminal Ald on the second peptide) [S453] | 0.57 |
| SLEEEWAQIEEVWGRGSESFYDWFERQLG [S571] | 1.8 |
| S433 (peptide) chain 1: ESFYDWFERQLGGGGK chain 2: WLDQEWAWVQ | 110 |
| LDQEWAWVQCEAYGRGCPSESFYDWFERQL [S503] | 2.1 |
| AAAAFYDWFAAAAAKK [S168] | 38 |
| SLEEEWAQIEAEVWGRGAPSESFYDWFERQLG [S574] | 0.0092 |
| LDQEWAQVQCEVYGRGCPSESFYDWFERQL [S533] | 0.067 |
| WPGYAWLS [S317] | > 20000 |
| SLEEEWAQIECEVWGRGCPSY [S592] | 17 |
| RD[Hyp]FYDWFDD[dI] [S268] | 450 |
| FYDWFERQLG [S392] | 38 |
| SLEEEWAQVECEVYGRGCPS [S547] | 49 |
| S229 (not fully specified; listing feature) chain 1: SDGFYNAIELLSX chain 2: KHLCVLEELFWGASLFGYCSGKKX | 4.4 |
| SLEEEWAQIQAEVYGNPNSESFYDWFERQL [S602] | 0.031 |
| Ac-SIEEEWAQIKCDVWGRGPSESFYDWFERQLG (ends and bridges not checked) [S568] | 0.0043 |
| SLEEEWAQVEAEVYGRGAPSGSLDESFYDWFERQLG [S551] | 0.072 |
| FHENFYDWFVAQVSKK [S108] | 750 |
| DPFYQGLWEWLRESGEE [S289] | > 2000 |
| S170 (disulfide I:1-II:1; not fully specified; ends not checked) chain 1: CGFHENFYDWFVRQVSKK chain 2: CGFHENFYDWFVRQVSKK | 700 |
| NANFYDWFVAELG [S241] | 16000 |
| S591 (protein) chain 1: LEEEWAQIECEVWGRGCSGSLDESF chain 2: LEEEWAQIECEVWGRGCSGSLDESF | 0.13 |
| WLDQEWAWVQCEVYGRGCPSGGSGGSGRVDWLQRNANFYDWFVAELG [S511] | 3.8 |
